Laboratory results as given in patent publication US20200109196A1 (MOGAM INSTITUTE FOR BIOMEDICAL RESEARCH, published 2020).
Positions count from the first letter of the chain named.

T1: recombinant human CEACAM-1/CD66a protein Bulk (R&D systems; Cat. No. 2244-CM) (human, UniProt P13688 35-428)
T1 construct: Same catalogue number as HCCM1, coated as a separate antigen ('bulk'); also called HCCM1 (bulk)
T1 sequence (looked up): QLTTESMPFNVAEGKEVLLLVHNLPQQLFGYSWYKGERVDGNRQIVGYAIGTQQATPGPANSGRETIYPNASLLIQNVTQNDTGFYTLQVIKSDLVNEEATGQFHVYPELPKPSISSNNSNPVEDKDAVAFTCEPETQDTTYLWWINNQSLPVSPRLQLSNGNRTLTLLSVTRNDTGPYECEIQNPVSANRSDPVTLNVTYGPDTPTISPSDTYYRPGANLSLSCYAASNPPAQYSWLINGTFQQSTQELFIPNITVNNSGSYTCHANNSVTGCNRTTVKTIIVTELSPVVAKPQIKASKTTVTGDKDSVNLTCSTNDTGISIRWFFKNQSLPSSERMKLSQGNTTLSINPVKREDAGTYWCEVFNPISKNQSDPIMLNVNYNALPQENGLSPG

T2: recombinant human CEACAM-3/CD66d protein (Sino Biological; Cat. No. 11933-H08H) (human, UniProt P40198 35-155)
T2 construct: Bought protein; also called HCCM3
T2 sequence (looked up): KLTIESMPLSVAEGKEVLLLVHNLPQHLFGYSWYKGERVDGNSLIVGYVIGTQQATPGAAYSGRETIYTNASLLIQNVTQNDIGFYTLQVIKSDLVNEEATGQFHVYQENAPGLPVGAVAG

T3: recombinant human CEACAM-1/CD66a protein (R&D systems; Cat. No. 2244-CM) (human, UniProt P13688 35-428)
T3 construct: Bought protein; captured on anti-His (His1K) biosensors in the Octet assay, so it carries a His tag; also called HCCM1; recombinant CEACAM-1/CD66a protein
T3 sequence (looked up): T1 sequence (looked up)

B1: C18 (antibody, human IgG4 S228P, lambda, V domains shown)
VH: EVQLLESGGGLVQPGGSLRLSCAASGFTFSNYDMSWVRQAPGKGLEWVSGISHSSGSKYYADSVKGRFTISRDNSKNTLYLQMNSLRAEDTAVYYCARDPLPCLIPKCSYYYAMDVWGQGTLVTVSS
VL: QSVLTQPPSAPGTPGQRVTISCSGSSSNIGSNAVTWYQQLPGTAPKLLIYADSHRPSGVPDRFSGSKSGTSASLAISGLRSEDEADYYCGSWDDSLNAYVFGGGTKLTVLG
B2: C22 (antibody, human IgG4 S228P, lambda, V domains shown)
VH: EVQLLESGGGLVQPGGSLRLSCAASGFTFSDYDMSWVRQAPGKGLEWVSMIYSGSSSKYYADSVKGRFTISRDNSKNTLYLQMNSLRAEDTAVYYCAKAPLPFYFRPKSYYYAMDVWGQGTLVTVSS
VL: B1 VL with P11S, A33N, D52N, D94S
B3: C17 (antibody, human IgG4 S228P, lambda, V domains shown)
VH: EVQLLESGGGLVQPGGSLRLSCAASGFTFSDYSMSWVRQAPGKGLEWVSVIYPDDGNTYYADSVKGRFTISRDNSKNTLYLQMNSLRAEDTAVYYCARGSIWWLSLIPSSYNAMDVWGQGTLVAVSS
VL: B1 VL with P11S, S31N, T35N, D52N, S91A, D94A, A98G
B4: C15 (antibody, human IgG4 S228P, lambda, V domains shown)
VH: EVQLLESGGGLVQPGGSLRLSCAASGFTFSSYSMSWVRQAPGKGLEWVSSISPNGGNKYYADSVKGRFTISRDNSKNTLYLQMNSLGAEDTAVYYCAKDPYNIYQPLFDYWGQGTLVTVSS
VL: QSVLTQPLSASGTPGQRVTISCSGSSSNIGNNYVNWYQQLPGTAPKLLIYANSNRPSGVPDRFSGSKSGTSASLAISGLRSEEEADYYCGTWDASLSAYVFGGGTKLTVLG
B5: C19 (antibody, human IgG4 S228P, lambda, V domains shown)
VH: EVQLLESGGGLVQPGGSLRLSCAASGFTFSGYAMSWVRQAPGKGLEWVSGIYHDGGSTYYADSVKGRFTISRDNSKNTLYLQMNSLRAEDTAVYYCARVTVLCTTYGCSSYDGMDVWGQGTLVTVSS
VL: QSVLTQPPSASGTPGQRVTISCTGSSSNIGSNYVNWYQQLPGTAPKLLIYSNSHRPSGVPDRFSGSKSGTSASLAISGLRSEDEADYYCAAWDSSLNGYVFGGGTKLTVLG
B6: C25 (antibody, human IgG4 S228P, lambda, V domains shown)
VH: EVQLLESGGGLVQPGGSLRLSCAASGFTFSNYAMSWVRQAPGKGLEWVSVISHGGGSIYYADSVKGRLTISRDNSKNTLYLQMNSLRAEDTAVYYCARDPTKGYAPTFDYWGQGTLVTVSS
VL: B4 VL with L8P, N35S, N52D, N54K, E83D, T91A, S97N, A98G
notes: Made in ExpiHEK293F cells, protein A purified. huIgG4 is the isotype control and anti-huIgG4 the detection reagent; the isotype is not otherwise stated; also called anti-CEACAM1 antibody C25
B7: C26 (antibody, human IgG4 S228P, lambda, V domains shown)
VH: EVQLLESGGGLVQPGGSLRLSCAASGFTFSGYDMSWVRQAPGKGLEWVSWISYGGGSIYYADSVKGRFTISRDNSKNTLYLQMNSLRAEDTAVYYCAKDRLPQKAVRHSYANGMDVWGQGTLVTVSS
VL: B1 VL with P11S, S31N, A33Y, S91A, D94Y, N97S, A98G

Biological target: T1, recombinant human CEACAM-1/CD66a …
Assay: ELISA, coated antigen, anti-human IgG Fab-HRP

binding result | Binder
binds | B1
binds | B2
binds | B3
binds | B4
binds | B5

Biological target: T2, recombinant human CEACAM-3/CD66d …
Assay: ELISA on coated antigen (0.25 µg/ml), HRP anti-human IgG Fc, OD450
Description: All of the recombinant human CEACAM-1/CD66a protein (R&D systems; Cat No. 2244-CM, HCCM1), recombinant human CEACAM-5/CD66e protein (R&D systems; Cat. No. 4128-CM, HCCM5), recombinant human CEACAM-6/CD66c protein (R&D systems; Cat. No. 3934-CM, HCCM6), recombinant human CEACAM-3/CD66d protein (Sino Biological; Cat. No. 11933-H08H, HCCM3), human B7-H5/Gi24/VISTA protein (Sino Biological; Cat. No. 13482-H08H, HVISTA), recombinant human CEACAM-1/CD66a protein Bulk (R&D systems; Cat. No. 2244-CM, HCCM1 (bulk)), recombinant human CEACAM1-N domain-Kappa protein (Mogam, in-house production, HCCM1-N domain-kappa), and BSA protein (2.5 μg each) were dissolved in 10 ml of PBS, respectively, and dispensed into a 96-well plate at 100 μl/well, which was incubated at 4° C. overnight. Thereafter, each well was treated with 300 μl of 1% (v/v) bovine serum albumin, and incubated at 37° C. for 1 hour.
The diluted antibodies were dispensed into each well coated with each protein at 100 μl/well, and incubated at 37° C. for 1 hour. Then, each well was washed 3 times with a washing buffer prepared by diluting 10 μl of Tween 20 (Sigma-Aldrich; Cat. No. P9146) in 990 μl of PBS. Thereafter, 2 μl of HRP-conjugated human anti-IgG-Fc antibody (anti-human IgG Fc, Sigma Cat. No. A0170) was diluted in 10 ml of PBS, added to the wells at 100 μl/well, and incubated for 1 hour.
After completion of the reaction, the wells were washed three times with the washing buffer, and 100 μl of TMB solution was added to each well to induce color development. Then, 100 μl of 2 M H₂SO₄ was added to each well to stop the reaction, and the absorbance was measured at a wavelength of 450 nm.

Binder | binding result
B1 | no binding (tested: 3 µg/ml (single concentration))
B3 | no binding (tested: 3 µg/ml (single concentration))
B4 | no binding (tested: 3 µg/ml (single concentration))

Biological target: T3, recombinant human CEACAM-1/CD66a …
Assay: ELISA on coated recombinant CEACAM-1/CD66a (0.25 µg/ml), HRP anti-human IgG, OD450
Method: Also, 2.5 μg of the recombinant CEACAM-1/CD66a protein (R&D systems; Cat. No. 2244-CM) was dissolved in 10 ml of PBS, and dispensed into 96-well plate (Nunc; Cat. No. 467679) at 100 μl/well and incubated overnight at 4° C. Thereafter, 300 μl of 1% (v/v) bovine serum albumin was added to each well, which was incubated at 37° C. for 1 hour.
Each of the diluted antibodies was subjected to serial dilutions in PBS at a 1:1 volume ratio for 6 times. Each of the antibodies diluted to 7 concentrations was dispensed into each well at 100 μl/well, which was incubated at 37° C. for 1 hour. Then, each well was washed 3 times with a washing buffer prepared by diluting 10 μl of Tween 20 (Sigma-Aldrich; Cat. No. P9146) in 990 μl of PBS. Thereafter, 2 μl of human IgG conjugated with HRP was diluted in 10 ml of PBS, which was then dispensed into each well at 100 μl/well and incubated for 1 hour.

binding result | EC50 (read off the curve) | Binder
binds |  | B3
 | ~0.2 µg/mL | B6
 | ~0.3 µg/mL | B7
binds |  | B4
